Results as given in the DeepSol protein solubility set.

Assay: soluble on expression in E. coli; label from the status in PepcDB or PDB records

Row | Sequence | soluble on expression in E. coli
1 | MLTQYRQAQEDILRGRVKVRVVGQDKGGGVVMGEGVEIAPGARIEGPVLIGGACHIATGAVVGPFTVLGPYTRVEEGATVRRSVLWDNVYTGEGANVRGAVVCSRASLQRRVQVYEGAVIGDGTQVDAGAEVRPEVKVWPEKTLEHHHHHH | not soluble
2 | MSEYRVNHEPVFMLASSPWRESSLWVEAFSRRYGRVALLARSARKRQSELRGVLVPFVPVSVSWYGSQELKTLHRAEWVGGWRQPQGRALFGGLYVNELVLKLTAREDPVPELYDALAEVMEAVCCKAAYIDDLRRFEWRLLNLLGVAPDLNRDGDGGTIAAGGTYLVRPETAVFPVGKGFAVPPHAAGVVAPGQSLIDLREGSFRTAESLQQALKITRLFIRHLLPEGLKSRQVLEQIRQFDRKETARETVPTSDGTASNAV | not soluble
3 | QCTGGADCTSCTGACTGCGNCPNAVTCTNSQHCVKANTCTGSTDCNTAQTCTNSKDCFEANTCTDSTNCYKATACTNSSGCPGH | soluble
4 | MNTSLFKQERQKYIPKLPNILKKDFNNISLVYGENTEAIQDRQALKEFFKNTYGLPIISFTEGESSLSFSKALNIGIILSGGPAPGGHNVISGVFDAIKKFNPNSKLFGFKGGPLGLLENDKIELTESLINSYRNTGGFDIVSSGRTKIETEEHYNKALFVAKENNLNAIIIIGGDDSNTNAAILAEYFKKNGENIQVIGVPKTIDADLRNDHIEISFGFDSATKIYSELIGNLCRDAMSTKKYWHFVKLMGRSASHVALECALKTHPNICIVSEEVLAKKKTLSEIIDEMVSVILKRSLNGDNFGVVIVPEGLIEFIPEVKSLMLELCDIFDKNEGEFKGLNIEKMKEIFVAKLSDYMKGVYLSLPLFIQFELIKSILERDPHGNFNVSRVPTEKLFIEMIQSRLNDMKKRGEYKGSFTPVDHFFGYEGRSAFPSNFDSDYCYSLGYNAVVLILNGLTGYMSCIKNLNLKPTDWIAGGVPLTMLMNMEERYGEKKPVIKKALVDLEGRPFKEFVKNRDKWALNNLYLYPGPVQYFGSSEIVDEITETLKLELFK | soluble
5 | DKKLAIVIHDNPDPDAISSGLALKEIAKSLGVEASILYHGRIGHQENKAFVNLLGIDLGKMEEHDLKDFDEIALIDCSIPGVNNMVPPNSYVGIVIDHHPPGETEIKAEYIDIRPNFGATATIMTKYLQQLNINISKTLATALLYGIRTDTQDFKRKTDPADLSAASYLYPLSNHGILDQLEQPSMAI | not soluble
6 | MGSSHHHHHHSSGRENLYFQGHMSKFVITCIAHGENLPKETIDQIAKEITESSAKDVSINGTKKLSARATDIFIEVAGSIVQKDLKNKLTNVIDSHNDVDVIVSVDNEYRQAKKLFVFDMDSTLIYQEVIELIAAYAGVEEQVHEITERAMNNELDFKESLRERVKLLQGLQVDTLYDEIKQKLEVTKGVPELCKFLHKKNCKLAVLSGGFIQFAGFIKDQLGLDFCKANLLEVDTDGKLTGKTLGPIVDGQCKSETLLQLCNDYNVPVEASCMVGDGGNDLPAMATAGFGIAWNAKPKVQKAAPCKLNTKSMTDILYILGYTDDEIYNRQ | soluble
7 | MGPLCAVCESPTAFTLHFGGRCCKACAAFFRRTIALDLKYECAADDPCEIHFKFPGMRLVCRECRLRKCYSAGMRSELVRSKRENFACTRRKDSRNNSDAAPNSNSPSTRQSSSPEEMDDWSFQMFEEKPKIEDLPLTPSISHPPLPTQLMPEESSRTSSFDGGYCSSYPSSSAATHPSPPGMLYSIENNSILQYYHSMETGLCSKRRIMYTNTGMDFILDTHANLQCPFTVNDLRPHDYRNFRGMLRHDFVMLFDYATRFPEFNSFTSHEKNMFYRQIVAVDFILSSAYYTAKLGQAHRQMVLTNGEYLNMDPLPMSGNEIDARRYFDCDEDFSKYRALMPMHIAIWEESIVPFSKLNVTFEEFCLLKALTVWQATYFKLTENGREKCRRQRNIIIGFLSKMCHSPGGGGEHRVGELLMSMNYLRESAQKLTTSYVMLTVFNVLNCDSMLHEMLNFQY | not soluble
8 | MKGVIMIIDGMADRPLEKLSGRTPLEAASTPNMDRIAESGINGIMDPIKPGVRAGSDTSHLSILGYDPYRVYTGRGPFEAAGVGLDVKPGDIAFRCNFATADEDMIITDRRAGRIRSGTSSIARTINSMTIEGFEDVEIIFRESTGHRAVLVLRGPGLGDKVSDADPKVEGKPPKKIKALDGSPESRKTAEVLNRIVKESYEILRDHPVNTGRIERGEAPANIILPRGAGAVPHVEKFQERYDLKAACIAETGLIKGIGHLTGMDVIDVEGATGGIDTDLESIKNAISSAIAADYDFLLINIDGADEAGHDGDLEGKVRFIERVDSILGDLMGDDIYFILTADHSTPVSVMDHTGDPVPIAITGPEVRVDDVTSFSERAAAAGGLCRIRGSDVMDILLDLMNKKEKFGALEHHHHHH | not soluble
9 | MGSDKIHHHHHHMINSYLVQQIKGNFLYKPTLEQEKAVKFLADFLFSRQSDSVFLLKGYAGTGKTSLIGALVKTLDQLQQKCVLLAPTGRAAKVFSHYAQHPAYTIHKKIYRQRNFSNDLDNFSLDDNLHQHTLFIVDEASMIANDGLAGAVFGTGRLLDDLIQYVYAGTGCRLMLIGDTAQLPPVGEEESPALSADKLRGYGMEVYEAQLTEVVRQMHDSGILWNATELRRYISEENFLTLPSVRVEGFPDIRMVSGSELIEVINDCYGQAGMDETIVVCRSNKRANIYNKGIRNTILFREDELNSGDLLMVAKNNYFWTEGCKEIDFIANGDIAVVRRVRRVREAYGFRFADVVLAFPDYDGMELEVKLLLDTLHTETPALPKELNDKLFYSVLEDYADITVKRERMKKMKADPHYNALQVKYAYAVTCHKAQGGQWKRVFLDQGYMTEDMLTPDYFRWLYTAFTRATEILYLVNWPKEQTE | not soluble
10 | MQRIRIIDSHTGGEPTRLVIGGFPDLGQGDMAERRRLLGERHDAWRAACILEPRGSDVLVGALLCAPVDPEACAGVIFFNNSGYLGMCGHGTIGLVASLAHLGRIGPGVHRIETPVGEVEATLHEDGSVSVRNVPAYRYRRQVSVEVPGIGRVSGDIAWGGNWFFLVAGHGQRLAGDNLDALTAYTVAVQQALDDQDIRGEDGGAIDHIELFADDPHADSRNFVLCPGKAYDRSPCGTGTSAKLACLAADGKLLPGQPWRQASVIGSQFEGRYEWLDGQPGGPIVPTIRGRAHVSAEATLLLADDDPFAWGIRR | soluble
11 | MSKRNTPQRRHNILALLNEQGEVSVDELAKRFETSEVTIRKDLAALESNGLLLRRYGGAITMPQELVSDIGQPVSLYKQAIARAAVQRIREHARIIIDSGSTTAAMIPELGLQPGLVVMTNSLNVANALSELEHEPVLLMTGGTWDPHSESFQGQVAEQVLRSYDFDQLFIGADGIDLARGTTTFNELLGLSRVMAEVAREVVVMVESDKIGRKIPNLELPWSSVHTLITDDRLPLEVRDQIQARGITLICAAVSLEHHHHHH | soluble
12 | MNKRENPIYKVIFLNQGQVFEMYAKQIYQSDLWGFLEIEEFVFGERTQVVVDPSEEKLKAQFEGVLRSFVPMHAIVRIDEVERLGTPKISEAKGAGNVMPFPMPMPGKSD | not soluble
13 | MKHARRLRQLSQENLAHISGLSQSAVASYENGLRQSSRSIRKLAIALQVNLDWLETGAGPMELEAYPSGPAAWRPGLMEPGGERAAAPWPFRAVAHARYQALSARDKLLLEQLVRTFIDTCHADYGRAPPWPRER | not soluble
14 | MSLKKVVIIGGGAAGMSAASRVKRLKPEWDVKVFEATEWVSHAPCGIPYVVEGLSTPDKLMYYPPEVFIKKRGIDLHLNAEVIEVDTGYVRVRENGGEKSYEWDYLVFANGASPQVPAIEGVNLKGVFTADLPPDALAIREYMEKYKVENVVIIGGGYIGIEMAEAFAAQGKNVTMIVRGERVLRRSFDKEVTDILEEKLKKHVNLRLQEITMKIEGEERVEKVVTDAGEYKAELVILATGIKPNIELAKQLGVRIGETGAIWTNEKMQTSVENVYAAGDVAETRHVITGRRVWVPLAPAGNKMGYVAGSNIAGKELHFPGVLGTAVTKFMDVEIGKTGLTEMEALKEGYDVRTAFIKASTRPHYYPGGREIWLKGVVDNETNRLLGVQVVGSDILPRIDTAAAMLMAGFTTKDAFFTDLAYAPPFAPVWDPLIVLARVLKEGHHHHHH | soluble
15 | AEFQVTSNEIKTGEQLTTSHVFSGFGCEGGNTSPSLTWSGVPEGTKSFAVTVYDPDAPTGSGWWHWTVVNIPATVTYLPVDAGRRDGTKLPTGAVQGRNDFGYAGFGGACPPKGDKPHHYQFKVWALKTEKIPVDSNSSGALVGYMLNANKIATAEITPVYEIKLE | soluble
16 | MLLVSTGAAGAEVIYVEPGASIQAAVNNSTTGDFIIVKAGEYEENIVVNVSGVTVSSEPEKSGSVFIRAGDRNSSVFQVKADNVTISGFNITGSGEFFSTHEASSPRDSFPKDPDGQGVSDIPELRKTYSLGSGEVFISRSTEFDCPQAGICLDQVENCTIERNHIFENQYGVYLQGSMNNTLSNNTFFRNGILIDEGCSRNTAENNSIEEGNLIIGAHCWDNIISRNRLSNGGGIGIACCGGGNLVSNNEIINCSTGVDMYDTQARTVLCGNLITDCDYGIYLILVYDSRVYNNTISNSSRGIFLRENSQNNELSGNIINSSNESGIYLLDHCADNRIFNNYFNNTVNVKAENSKGNSWNITKAPGINIAEGPYLGGNFWADLNGTGYSQIAEDSDSDGICDLPYNVNGCDYDYLPLARLPFSPSLSGGNLKLLEHHHHHH | not soluble
17 | MSTCPIDPPALRAAFAGPLDPQHAEVLLSRYDQHASRLLDALHALYGQRADYASWLAQWLGEVGDIARQRPQALQTLDSTRHAGWFGQPHMLGYSAYADRFAGTLQGVAERVPYLQELGVRYLHLLPFLRARAGDNDGGFAVSDYGQVEPSLGSNDDLVALTSRLREAGISLCADFVLNHTADDHAWAQAARAGDARYLDYYHHFADRTVPDRYEATLGQVFPHTAPGNFTWVDDTAQWMWTTFYPYQWDLNWSNPAVFGDMALAMLRLANLGVEAFRLDSTAYLWKRIGTDCMNQSEAHTLLVALRAVTDIVAPAVVMKAQAIVPMTQLPPYFGSGVDEGHECHLAYHSTLMAAGWSALALQRGDILHNVIAHSPPLPRHCAWLSYVRCHDDIGWNVLQHEACGNAAQPPFSLRDVARFYANAVPGSYARGESFQSSGDGVHGTNGMAAALAGIQAAQEAGDAAALAVAVDRLVLLYAIALAMPGVPLIYMGDELAMVNDPGYRDDPHRQHEGRWLHRPAMDWQLAAQRHDAKSLSGTVYRRLRGLIRQRAALGALAADQALASIALNDPRVFALTRGDSFIALHNFSDQLLDVELAAIGVDGWTLLAIDDAIGGAAARGDGSIVLPPYGVRWLQRGTEHAPE | soluble
18 | MFSQWVFLSVLALAVPSFAWAEDAVSDLAREQSKAEQGDKRGDELFAEFTRLRQAAETGEPQALFDFGAYFYQQQNYASAREWWGKAAAAGMVRAQIQLAMLYRDGDGGPQDKTEAARWFRKAAEQGDAAAQNEMGVLYWRGEGVDQDRVKAGTWFERAAASGSEDAETNLGWFYLDDSQGVYSATSDEEAALLDRYAGSREKAFQWFCKAATQGDARAQFKVGEAYWNGSGAGMNKLQARLWLEKAAQQQDADAIAWLESAANAAWYTRLENWIHAALDGELSGVADCSGAADRRHSGRGMEGAPSDPEAVEASAEDAQQAVEAASQ | not soluble
19 | MAHHHHHHMKTDDHLSQIHRMCRALGIRPGAPAPLIQPALTLQCPRLHTPMVVHEKPAAKIALPMLLSDSSGDVSYLAGQDSVGTLRMTPPGSPRTPALTSVSNMRHHAHLATSELPVSVLVASALSFVAAWRTEDSACTAQKDLIHCCLKARCDLELEEAGGRHRLNQLLLTVSEQMHRFVVMGEYSKFVVFCVDQEPVWRQAARQLQKENEARLHTTENIYSRFLMEEIAVSDKMRMFQEASDFVVSQGHAAREQRRRAQILAARRRCDRQSAPQETPMPFAPQSHLHPHQHKNESNAAALAGGWTPPQRQRPRDDSTDRRSGSSKERSSKNAKSHSTTEVDRYRQRWRKIIWFLSNGERGKPAPH | not soluble
